Consider 2 molecules from CN106749661A (UNIV BEIJING, dated 2017).

Experiment [1] addresses T1, PC3细胞内源性PSMP蛋白 (human, UniProt Q1L6U9 36-139, limits assumed).
T1 construct: Detected by Western blot and by immunocytochemistry in PC3 cells
T1 sequence (looked up): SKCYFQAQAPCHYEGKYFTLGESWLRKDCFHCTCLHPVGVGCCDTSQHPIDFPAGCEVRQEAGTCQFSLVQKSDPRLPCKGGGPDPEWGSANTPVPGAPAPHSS
The experiment is described as follows: Western blot of PC3 cells. For orientation: In western blotting, separated proteins are transferred to a membrane and probed.

In experiment [2] the target is T2, PSMP真核蛋白 (human, UniProt Q1L6U9 36-139).
T2 construct: mature; Eukaryotically expressed secreted PSMP; The expression construct and any tags are not described; also called 重组PSMP真核蛋白; PSMP分泌蛋白
T2 sequence (looked up): T1 sequence (looked up)
As to the kind of experiment: ELISA.

Experiment [3] deals with T3, PSMP蛋白 (human, UniProt Q1L6U9 36-139, limits assumed).
T3 sequence (looked up): T1 sequence (looked up)
The experiment is described as follows: cytometric bead array, rabbit polyclonal on beads, 3D5 at 5 μg/ml as detection antibody.

Experiment [4] deals with T3, PSMP蛋白. The experiment is described as follows: ELISA with 293T expression supernatant. A general note: An ELISA detects its analyte on a solid surface through an enzyme-linked reagent.

B1: 抗PSMP的单克隆抗体3D5 (antibody, V domains shown)
VH: EVQLQQSGPELVKPGASVKISCKASGYSFTGYFMNWVMQSHGKSLEWIGRINPYNGDTFYNQKFKGKATLTVDKSSSTAHMELRSLASEDSAVYYCARGGDGYYAFAYWGQGTLVTVSA
VL: NIVMTQSPKSMSMSVGERVTLSCRASENVGTYVSWYQQKPEQSPKLLIYGASNRYTGVPDRFTGSGSATDFTLTISSVQAEDLADYHCGQSYSYMYTFGGGTKLEIKR
notes: Mouse hybridoma antibody, heavy chain IgG1, light chain kappa, purified from ascites on Protein G Sepharose; also called 鼠单抗3D5; 3D5中和抗体
Consider B1, for which the binding result in experiment [1], in experiment [2] and in experiment [3] was “binds” each time.

B2: 共转染含有3D5重链和轻链基因的质粒的293T上清中表达的抗体 (antibody, V domains shown)
VH: B1 VH
VL: B1 VL
notes: It was tested as culture supernatant
On to B2, for which the binding result in experiment [4] is reported as “binds”.
